Measurements published in PMC4930401.

Biological target: BF520.1 (human (infant BF520))
Test: BLI

Question: With “BF520.W14.E3 native-like SOSIP trimer (complex)” as the substance, how does the Kd read?
Answer: 8 nM
